We go through two molecules from US8409836B2, “Treatment of cellulosic material and enzymes useful therein” (Roal Oy, priority 2005, dated 2013).

The nature of series [1]: Xylanase activity on birch xylan. The series is classed as biochemical. In a few lines: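 Xylanase activity measured on birch glucuronoxylan by the IUPAC 1987 standard procedure, using enzyme purified from Acremonium thermophilum ALKO4245 or Thermoascus aurantiacus ALKO4242 culture supernatant. Protein determined by dye-binding assay against a bovine serum albumin standard.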

Series [2] is described as follows: Isoelectric focusing (PhastSystem), pI of purified protein. The series is classed as physicochemical. The note with it: IEF gel. On the procedure: The sample was dissolved in water and applied to a Superdex 75 HR 10/30 gel filtration column equilibrated with 20 mM sodium phosphate pH 6.0, containing 0.15 M NaCl. Fractions were collected and those containing endoglucanase activity were combined. The protein eluate was judged to be pure by SDS-polyacrylamide gel electrophoresis and the molecular mass was evaluated on the basis of molecular mass standards (prestained SDS-PAGE standards, Broad Range, Bio-Rad) to be 54 kDa. The pI of the purified protein, designated as Ct EG—54 was determined with PhastSystem (Pharmacia) to be ca 5.5.
The sample was applied to a Sephacryl S-100 HR 26/60 gel filtration column equilibrated with 50 mM sodium acetate buffer pH 5.0, containing 0.05 M NaCl. The protein fraction containing endoglucanase activity was eluted from the column with a retention volume corresponding to a molecular weight of 16 kDa. Collected fractions were combined, concentrated and gel filtration was repeated. The protein eluate was judged to be pure by SDS-polyacryl amide gel electrophoresis and the molecular weight was evaluated to be 28 kDa. The pI of the purified protein, designated as Ta EG—28, was determined in an IEF gel (PhastSystem, Pharmacia) to be about 3.5. The specific activity of Ta EG—28 at 50° C. was determined to be 4290 nkat/mg (procedure of IUPAC 1987, using CMC as substrate).
The active material from the anion exchange chromatography was applied to a Sephacryl S-300 HR 26/60 column equilibrated with 20 mM sodium phosphate pH 6.5, containing 0.15 M NaCl. The protein with β-glucosidase activity was eluted with a retention volume corresponding to a molecular weight of 243 kDa. The protein was judged to be pure by SDS-polyacrylamide gel electrophoresis and the molecular weight was evaluated to be 101 kDa. The pI of the purified protein, designated as At βG—101, was determined in an IEF gel (PhastSystem, Pharmacia) to be in the area of 5.6-4.9. The specific activity of At βG—101 at 50° C. was determined to be 1100 nkat/mg (using 4-nitrophenyl-β-D-glucopyranoside as substrate, Bailey and Linko, 1990).
The active material from the cation exchange chromatography was applied to a Sephacryl S-300 HR 26/60 column equilibrated with 20 mM sodium phosphate pH 7.0, containing 0.15 M NaCl. The protein with β-glucosidase activity was eluted with a retention volume corresponding to a molecular weight of 294 kDa. […] The protein was judged to be pure by SDS-polyacrylamide gel electrophoresis and the molecular weight was evaluated to be 81 kDa, representing most likely the monomeric form of the protein. […] The specific activity of the purified protein, designated as Ta βG—81, at 50° C. was determined to be 600 nkat/mg using 4-nitrophenyl-β-D-glucopyranoside as substrate (Bailey and Linko, 1990). […]

A short description of series [3]: pH optimum of heterologously produced xylanase. The format is biochemical. The note with it: McIlvaine's buffer, pH range 3.0-8.0, birch xylan. How it is done:
(§1) Thermoascus XYN—30/Xyn10A was produced in T. reesei and the pH optimum of the heterologously produced protein was determined in the universal McIlvaine's buffer within a pH range of 3.0-8.0 using birch xylan as substrate (FIG. 8A). The optimal pH was determined to be 4.5. The temperature optimum for the enzymatic activity of XYN—30 was determined to be 75° C. (FIG. 8B).

Series [4] is described as follows: Temperature optimum of heterologously produced xylanase. The format is biochemical. The note with it: pH 5.3, 60 min reaction. On the procedure:
as §1

A short description of series [5]: β-glucosidase activity on 4-nitrophenyl-β-D-glucopyranoside. The format is biochemical. On the procedure:
Acremonium Thermophilum ALKO4245 was grown as described in Example 1. The pure β-glucosidase was obtained by sequential purification with hydrophobic interaction and anion exchange chromatography followed by gel filtration. The β-glucosidase activity of the fractions collected during purification was determined using 4-nitrophenyl-β-D-glucopyranoside as substrate (Bailey and Linko, 1990). Protein content was measured by BioRad Assay Kit (Bio-Rad Laboratories) using bovine serum albumine as standard.
Thermoascus aurantiacus ALKO4242 was grown as described in Example 1. The pure β-glucosidase was obtained by sequential purification with hydrophobic interaction, anion and cation exchange chromatography followed by gel filtration. The β-glucosidase activity of the fractions collected during purification was determined using 4-nitrophenyl-β-D-glucopyranoside as substrate (Bailey and Linko, 1990). Protein content was measured by BioRad Assay Kit (Bio-Rad Laboratories) using bovine serum albumine as standard.

The nature of series [6]: Temperature optimum of heterologously produced β-glucosidases. The series is classed as biochemical. The note with it: temperature range 50-85° C., 60 min. On the procedure:
(§2) The pH optimum of the heterologously produced β-glucosidases was determined in the universal McIlvaine's buffer within a pH range of 3.0-8.0 using 4-nitrophenyl-β-D-glucopyranoside as substrate. The pH optima for the Acremonium βG—101, Chaetomium βG—76, and Thermoascus βG—81 are pH 4.5, 5.5, and 4.5, respectively (FIG. 7 A). The optimal temperature for enzymatic activity of these β-glucosidases was determined at the temperature range of 50-85° C. as described above. The highest activity of the enzymes was determined to be at 70° C., 65° C., and 75° C. for the Acremonium βG—101/Cel3A, Chaetomium βG—76/Cel3A, and Thermoascus βG—81/Cel3A, respectively (FIG. 7 B).

The nature of series [7]: pH optimum of heterologously produced β-glucosidases. The series is classed as biochemical. The note with it: McIlvaine's buffer, pH range 3.0-8.0, 4-nitrophenyl-β-D-glucopyranoside. On the procedure: as §2
Series [8] relates to Trichoderma-strains (A47 and Rut-C30). Description: Cellulase induction on βG_81 pretreated Nutriose in shake flask cultivation. The series is classed as cell-based. The note with it: 7 days shake flask cultivation. On the procedure: A high concentration starch hydrolysate mixture (Nutriose 74/968, Roquette) was treated with Thermoascus aurantiacus βG—81/Cel3A enriched enzyme preparation produced as described in Example 21 to produce a sugar mixture containing appreciable amounts of cellulase inducer (sophorose) to overcome the glucose repression.
The Ta βG—81/Cel3A enriched enzyme preparation was added to a 70% (w/w) Nutriose solution to a final concentration of 1 g total protein/liter. The container of the mixture was incubated in a water bath at 65° C. for 3 days with constant stirring and used as a carbon source in a shake flask medium for two different Trichoderma-strains (A47 and Rut-C30). The effect of the enzyme treatment was measured as an endoglucanase activity formed during a 7 days shake flask cultivation. As a reference cultivations were performed under the same conditions with untreated Nutriose as a carbon source.

Series [9] in a line: Thermal stability of purified β-glucosidase. The series is classed as biochemical. The conditions noted are these: 0.1 mg/ml BSA, pH 5.0, 60 min, 4-nitrophenyl-β-D-glucopyranoside. On the procedure: Thermal stability of the purified β-glucosidase was determined at different temperatures. The reaction was performed in the presence of 0.1 mg/ml BSA at pH 5.0 for 60 min using 4-nitrophenyl-β-D-glucopyranoside as substrate. A. thermophilum βG—101 was stable up to 70° C. The Aspergillus reference enzyme (Novozym 188) retained 100% of activity up to 60°.
Thermal stability of the purified β-glucosidase was determined at different temperatures. The reaction was performed in the presence of 0.1 mg/ml BSA at pH 5.0 for 60 min using 4-nitrophenyl-β-D-glucopyranoside as substrate. T. aurantiacus βG—81 was stable up to 75° C. The Aspergillus reference enzyme (Novozym 188) retained 100% of activity up to 60° C.

Where “and” joins values, the source holds several entries; their conditions need not be identical. Identical values can stand only once. Bounds are passed on as bounds.

On to “Ta XYN_30: xylanase of Thermoascus aurantiacus ALKO4242, gene Ta xyn10A, amino acid SEQ ID NO: 18”, for which the “Xylanase activity of the preparation” value in [1] (assayed according to Bailey et al., 1992) is on record as 132 000 nkat/ml. Besides, in series [1] (purified xylanase, 50° C., procedure of IUPAC 1987), the “Specific activity on birch xylan” value came out at 4800 nkat/mg. Further, the “pI of the purified protein” value in series [2] is reported as “ca. 6.8”. Further, in series [3], the pH optimum was 4.5. This molecule returned a Temperature optimum in series [4] of 75 °C.

B1: Ta βG_81: beta-glucosidase of Thermoascus aurantiacus ALKO4242, gene Ta cel3A, amino acid SEQ ID NO: 22 (protein)
chain: MRLGWLELAVAAAATVASAKDDLAYSPPFYPSPWMNGNGEWAEAYRRAVDFVSQLTLAEKVNLTTGVGWMQEKCVGETGSIPRLGFRGLCLQDSPLGVRFADYVSAFPAGVNVAATWDKNLAYLRGKAMGEEHRGKGVDVQLGPVAGPLGRHPDGGRNWEGFSPDPVLTGVLMAETIKGIQDAGVIACAKHFIGNEMEHFRQAGEAVGYGFDITESVSSNIDDKTLHELYLWPFADAVRAGVGSFMCSYNQVNNSYSCSNSYLLNKLLKSELDFQGFVMSDWGAHHSGVGAALAGLDMSMPGDTAFGTGKSFWGTNLTIAVLNGTVPEWRVDDMAVRIMAAFYKVGRDRYQVPVNFDSWTKDEYGYEHALVGQNYVKVNDKVDVRADHADIIRQIGSASVVLLKNDGGLPLTGYEKFTGVFGEDAGSNRWGADGCSDRGCDNGTLAMGWGSGTADFPYLVTPEQAIQNEILSKGKGLDSVSIVFVNADSGEGYINVDGNEGDRKNLTLWKGGEEVIKTVAANCNNTIVVMHTVGPVLIDEWYDNPNVTAIVWAGLPGQESGNSLVDVLYGRVSPGGKTPFTWGKTRESYGAPLLTKPNNGKGAPQDDFTEGVFIDYRRFDKYNETPIYEFGFGLSYTTFEYSNIYVQPLNARPYTPASGSTKAAPTFGNISTDYADYLYPEDIHKVPLYIYPWLNTTDPEEVLRRSRLTEMKAEDYIPSGATDGSPQPILPAGGAPGGNPGLYDEMYRVSAIITNTGNVVGDEVPQLYVSLGGPDDPKVVLRNFDRITLHPGQQTMWTTTLTRRDISNWDPASQNWVVTKYPKTVYIGSSSRKLHLQAPLPPY
Consider B1, for which the “β-glucosidase activity of the preparation” value in series [5] (according to Bailey and Linko, 1990, listed as Ta βG—81/Cel3A) is 6270 nkat/ml and 11500 nkat/ml. The “Specific activity on 4-nitrophenyl-β-D-glucopyranoside” value in series [5] (purified β-glucosidase, 50° C.) is recorded as 600 nkat/mg. Besides, in series [6], the “Temperature of highest activity” value was found to be 75 °C. This molecule registered a pH optimum in [7] of 4.5. Besides, the “pI of the purified protein” value in series [2] is > 5.85 and 4.55. Moreover, the “Endoglucanase activity formed on pretreated Nutriose versus untreated Nutriose” value in [8] is given as “More than two-fold increase”. Further, in [9], the “Thermal stability: temperature up to which stable / 100% of activity retained” value was “up to 75 °C”.
